In patent US20130253173A1 (Novo Nordisk, published 2013):
Each block holds one binder with its values, some of them ahead of it.

Columns and labels:
Rabbit TFPI = target: T1, Rabbit TFPI (rabbit, UniProt P19761 25-300, limits assumed); assay: SPR (Biacore 3000), mAb captured on immobilised anti-mouse IgG, TFPI in solution, 1:1 model
T1 sequence (looked up): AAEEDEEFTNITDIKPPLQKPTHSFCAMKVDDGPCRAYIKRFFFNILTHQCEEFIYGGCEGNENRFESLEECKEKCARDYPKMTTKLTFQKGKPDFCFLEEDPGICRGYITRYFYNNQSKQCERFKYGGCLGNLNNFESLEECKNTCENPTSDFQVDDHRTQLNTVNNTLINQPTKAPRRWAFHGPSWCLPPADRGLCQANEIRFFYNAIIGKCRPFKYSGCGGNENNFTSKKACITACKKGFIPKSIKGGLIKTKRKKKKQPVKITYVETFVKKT
Experimental: (§1) Binding interaction analysis was obtained by Surface Plasmon Resonance in a Biacore 3000. Capture of the relevant monoclonal antibody at a fixed concentration was obtained with immobilised mouse anti-IgG. Different concentrations of TFPI were tested. Determination of binding constants (kₒₙ, koff, KD) was obtained assuming a 1:1 interaction of TFPI and the antibody of interest.

full length human TFPI = target: T2, full length human TFPI (human, UniProt P10646 29-304); assay: as above
T2 construct: also called wild type (wt) TFPI; TFPI Fl
T2 sequence: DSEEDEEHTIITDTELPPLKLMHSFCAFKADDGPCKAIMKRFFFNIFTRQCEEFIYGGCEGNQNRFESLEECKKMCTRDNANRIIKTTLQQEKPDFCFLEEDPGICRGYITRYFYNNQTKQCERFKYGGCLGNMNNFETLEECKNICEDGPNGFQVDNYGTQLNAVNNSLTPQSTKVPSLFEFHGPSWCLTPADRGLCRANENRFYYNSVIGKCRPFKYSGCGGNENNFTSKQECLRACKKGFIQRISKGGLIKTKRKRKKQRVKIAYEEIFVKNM
Experimental: as §1

truncated TFPI (1-239) = target: T3, truncated TFPI (1-239) (human, UniProt P10646 29-267); assay: binding of TFPI variants to anti-TFPI MAbs relative to TFPI-WT (=1.0); ELISA or ForteBio with HEK293-F conditioned medium, Example 7
T3 construct: Expressed in HEK293-F cells; conditioned medium used
T3 sequence: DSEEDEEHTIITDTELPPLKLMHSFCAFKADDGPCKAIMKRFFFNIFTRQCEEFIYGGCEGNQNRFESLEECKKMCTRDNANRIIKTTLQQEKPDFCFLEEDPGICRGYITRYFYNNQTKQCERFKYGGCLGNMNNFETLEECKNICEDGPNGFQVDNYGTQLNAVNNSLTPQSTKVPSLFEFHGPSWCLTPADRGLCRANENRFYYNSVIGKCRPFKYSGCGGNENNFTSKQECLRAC
Experimental: (§2) The effect of truncating the C-terminal tail of TFPI on TFPI's binding affinity to MuTFPI22F66, MuTFPI22F71, MuTFPI22F74, MuTFPI22F79 and MuTFPI22F132 was analyzed by means of ELISA, or real-time binding analysis, using the ForteBio platform. […] The ELISAs, or the real-time binding analyses, were carried out using the conditioned medium from the cell cultures.
(§3) The concentrations of wt TFPI and truncated TFPI mutants in the conditioned medium were estimated by means of an ELISA that binds TFPI K1-K2 (Goat anti-TFPI, in-house) and K2 (MAb4F36, in-house). The binding to these antibodies is not affected by the truncations. Alternatively, biotin-labelled MAb4F36 was captured on streptavidin coated BioSensor tips (ForteBio) and used for concentration estimations.
(§4) In the ELISA setting, the effect of the mutations on TFPI's ability to bind to MuTFPI22F66, MuTFPI22F71, MuTFPI22F74, MuTFPI22F79 or MuTFPI22F132 was analyzed using each of the listed MAbs as capturing antibody and using MAb4F36 for detection. Direct binding of TFPI variants to biotin-labelled MuTFPI22F66, MuTFPI22F71, MuTFPI22F74, MuTFPI22F79, and MuTFPI22F132, captured on streptavidin coated BioSensor tips (ForteBio), was measured using the ForteBio platform.

truncated TFPI (1-240) = target: T4, truncated TFPI (1-240) (human, UniProt P10646 29-268); assay: as above
T4 construct: Expressed in HEK293-F cells; conditioned medium used
T4 sequence: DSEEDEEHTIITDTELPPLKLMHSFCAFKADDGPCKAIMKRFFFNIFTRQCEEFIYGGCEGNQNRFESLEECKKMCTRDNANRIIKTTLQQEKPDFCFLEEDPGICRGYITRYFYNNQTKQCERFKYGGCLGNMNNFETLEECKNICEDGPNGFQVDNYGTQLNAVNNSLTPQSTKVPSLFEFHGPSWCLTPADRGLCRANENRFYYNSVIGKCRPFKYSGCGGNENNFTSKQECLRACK
Experimental: as §2, §3, §4

Kd (Rabbit TFPI): 3.76 nM
Kd (full length human TFPI): 0.6 nM
binding result (truncated TFPI (1-239)): no binding
binding result (truncated TFPI (1-240)): no binding
B1: MuTFPI22F66 (antibody, mouse IgG1, V domains shown)
VH: EVQLQQSGPELVKPGASMKISCKASGYSFTGYPMNWVRQSHGKNLEWIGLINPYNGDTTFNQKFKGKATLTVDKSSSTAYMELLSLTSEDSAVYYCARGTYEYVDYWGQGTTLTVSS
VL: QIVLTQSPTIMSASPGERVTMTCSASSSVFYMHWYQQKPGSSPRLLIYDTSILSSGVPVRFSGSGSGTSYSLTIRRMEAEDAATYYCQQWSSYPLTFGAGTKLELKR
notes: also called anti-TFPI22F66

Kd (full length human TFPI): 0.002 nM
B2: MuTFPI4F110 (antibody, mouse IgG1, V domains shown)
VH: QVQLQQSGAELVKPGASVKLSCKASGYTFISYYMYWVKQRPGQGLEWIGEINPSNGDTNLNEKFKSKATLTVDKSSSTVYMQLSSLTSEDSAVYYCTRWDRFDGFVYWGQGTLVTVSA
VL: ETTVTQSPASLSMAIGGKVTIRCIISTNIDDDINWYQQKPGEPPKLLISEGNTLRPGVPSRFSSSGYGTDFVFTIENMLSEDVADYYCLQSDDLPYTFGGGTKLEIKR
notes: also called anti-TFPI4F110; mAb 4F110

Kd (Rabbit TFPI): 0.18 nM
Kd (full length human TFPI): 0.8 nM
binding result (truncated TFPI (1-239)): no binding
B3: MuTFPI22F71 (antibody, mouse IgG1, V domains shown)
VH: EVQLQQSGTVLARPGASVKMSCKASGYSFTTYWIHWVKQRPGQGLEWIGAIDPGNSDATYSQKFKDKAKLTAVTSASTAFMELNSLTNDDSAVYYCSREVYYGYDGDYFDYWGQGTTLTVSS
VL: DIVLTQSPASLAVSLGQRATISCRASESVSVHGTHLMHWYQQKPGQPPKLLIYAASKLESGVPARFSGSGSETDFTLNIHPVEEEDAATYFCQQSIGDPWTFGGGTKLEIKR
notes: also called anti-TFPI22F71
